This is an account of results in patent US20230189818A1, “RNA-BASED CONTROL OF BOTRYTIS” (priority 2021, published 2023).

For one data set, the system named is Botrytis cinerea conidia. Description: In vitro liquid-based assay (fungal biomass, 96-well plates, Cytation 5). The data set is classed as cell-based. As to conditions: co-incubated with conidia for three days, vs untreated control. Put shortly: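 Conidia (5000/mL stock) were co-incubated with dsRNA or control treatments in pH 6.0 minimal medium. Incubation ran 72 h at 23 °C, shaking at 120 rpm under continuous light. Fungal biomass was measured by brightfield imaging (8 slices per well, 2.5× lens) and expressed as average reduction versus control.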

Data set [1] deals with Botrytis cinerea isolate (B05.10). In words: Detached leaf assay (tomato leaflets, lesion size). The data set is classed as in vivo. To be noted: five days post inoculation, vs untreated inoculated control. Put shortly:
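Tomato (Brandywine) detached lateral leaflets were sprayed with treatment in 0.03% Silwet L-77 24 h before inoculation. Two 10 μL drops of 1×10^5 conidia/mL in 7% grape juice were applied per leaflet, which was then incubated at 23 °C, ~75% RH, 12/12 light. Lesion diameter was measured at 5 DPI against the untreated inoculated control, ten replicates.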

The subject of data set [2] is Botrytis cinerea B05.10 isolate. Description: Greenhouse whole plant assay (tomato 'Lanai', disease severity). In kind it is in vivo. To be noted: 25 g ai/ha; final rating day (rating #3); three runs; four-week-old 'Lanai' tomato plant.

B1: GS793: dsRNA trigger targeting B. cinerea Bcswd2 (XM_024694665.1); trigger SEQ ID NO 20, RNA 32, reverse complement 44 (nucleic acid, listed as Botrytis cinerea)
sense: CUGCGUCACUAUAUGGUCCUAGACUUUUCAACUCCCUCUUUGAAGCUUACACAACAUCUUGGAAAAGUAUAAAAACAACAACAAGAAACAUGUCGUCAACCCCUAUGGCGAUAGACUCUCCAUUAGGUGCGAAUGGUACUUCCAUGUUGAAAGCAAACGGAGUCUCAUCAGUCCCACAGACUGGCAAACUGACUGAGAUGAUCUCAUUAUACCAUCCAGUCAAGCUUUUCAAACAUCCUCCGACACCUGCAGACAAAGGGCAAACUCCUCCGAGUUACAACUUUAUUCAGUCUAUCAAUUUCAAUGACAAUGGCAGUCAGCUUAUCACGUCAGAAACUGAUAACACUAUGCAAAUAUAUGAUGUUCUCGAAGGAAGACAUUCAAAAAUGAAUAUUAGUGCCAAGUAUGGUUGUAACCAUGCAAUGUUUGGCCAUGCUGAACAUUGUAUAAUCCAUUCUAGUACCAAAAAAGACCACAA
antisense: UUGUGGUCUUUUUUGGUACUAGAAUGGAUUAUACAAUGUUCAGCAUGGCCAAACAUUGCAUGGUUACAACCAUACUUGGCACUAAUAUUCAUUUUUGAAUGUCUUCCUUCGAGAACAUCAUAUAUUUGCAUAGUGUUAUCAGUUUCUGACGUGAUAAGCUGACUGCCAUUGUCAUUGAAAUUGAUAGACUGAAUAAAGUUGUAACUCGGAGGAGUUUGCCCUUUGUCUGCAGGUGUCGGAGGAUGUUUGAAAAGCUUGACUGGAUGGUAUAAUGAGAUCAUCUCAGUCAGUUUGCCAGUCUGUGGGACUGAUGAGACUCCGUUUGCUUUCAACAUGGAAGUACCAUUCGCACCUAAUGGAGAGUCUAUCGCCAUAGGGGUUGACGACAUGUUUCUUGUUGUUGUUUUUAUACUUUUCCAAGAUGUUGUGUAAGCUUCAAAGAGGGAGUUGAAAAGUCUAGGACCAUAUAGUGACGCAG
As for B1, the “Average % Reduction in Biomass” value in the data set with Botrytis cinerea conidia (25 ppm dsRNA) is given as 13%; in the data set with Botrytis cinerea conidia (150 ppm dsRNA), 36%. In addition, the “Average % Reduction in Lesion Size” value in data set [1] (30 ppm) is given as 55.26%; in data set [1] (50 ppm), 57.69%. Moreover, in data set [2], the “% control” value was 24%.
